US20070265189A1 (published 2007)

biological target: T1, Soluble IGF-1R (sIGF-1R), R&D Systems Cat. # 391-GR/CF (UniProt P08069 31-935, limits assumed); assay: phage ELISA
T1 construct: extracellular domain

| IGF-1R/IR comparison | Ratio over Background | Binder |
| --- | --- | --- |
| 3.9 | 4.3 | LSVALSFYDALGQLVAGEGRW [20E2A-3-A12-IGFR] |
| 9.6 | 7.9 | NSRDGGFYLQLERLLGFPVTG [20E2B-3-D4-IGFR] |
| 7 | 4.5 | RQGTGSFYLMLEQLLVGARGP [20E2B-4-G11-IGFR] |
| 7.6 | 12.2 | LGVTDGFYAALGYLIHGVGQF [20E2B-3-D11-IGFR] |
| 4.6 | 8.8 | GCVVEWQKWHGASDPFYHKLSELGGCS [B6Hα-3-F10-IR] |
| 6.7 | 6.8 | SAAQLFFQESFYDWFLRQVAESSQPN [H2CA-4-F11-IGFR] |
| 6.4 | 7.3 | AVRATRFDEAFYDWFVRQISDGQGNK [H2CA-4-F6-IGFR] |
| 9.7 | 9.5 | RFSTDGFYQYLLALVGGGPVG [20E2B-1-A11-IGFR] |
| 4.3 | 5.6 | GCAVVEEAERSRGDPFYHKLSELIQGC [B6Hα-3-E7-IR] |
| 6.7 | 6.1 | LSSDGQFYRALNLLLQGSAGR [20E2B-2-B7-IGFR] |
| 7.6 | 8.8 | QFYGCLLDLSLGVPSFGWRRRCITA [20C-3-A4-IGFR] |
| 6.2 | 20.4 | ASSASGFYELLQRLAGLGLEV [20E2B-3-C4-IGFR] |
| 4.2 | 5.4 | GCEVIVEEGDSADPFYHKLSELCQGS [B6Hα-2-D1-IR] |
| 6 | 10.9 | IIGGFYSYFNSVLRLGT [NNRPγ-4-A1-IR] |
| 4.8 | 5.3 | RGKTAAVIVGRPADPFYHKLSELLQGG [B6Hα-3-E8-IR] |
| 4.4 | 4.4 | GRTMAVMAAGGPDDPFYHKLSELVQGG [B6Hα-2-D6-IR] |
| 7.1 | 10 | EGSGFYGYFFSLLGLQG [NNRPγ-4-A9-IR] |
| 4.9 | 6.3 | RFDPFYSYFVNLLGASA [NNRPγ-4-A7-IR] |
| 3.4 | 4.8 | AETSVQVGWIRLQSVWPGEHWNTVDPFYHKLSELLRGSGA [B6L-4-D7-IR] |
| 7.2 | 5.7 | IWATGDFYRLLSQLVMGRVGT [20E2B-2-B8-IGFR] |

| IGF-1R/IR comparison | Ratio over Background | Binder |
| --- | --- | --- |
| 8.9 | 15.6 | QPAPDGFYSALMKLIGRGGVS [20E2B-3-C8-IGFR] |
| 3.6 | 6.1 | GGTKAVAKVGTRDDPFYHKLSELLQGS [B6Hα-4-G8-IR] |
| 5.3 | 5.8 | SGAKVIVVTGDSGDPFYHKLSELLQGS [B6Hα-2-C10-IR] |
| 7.3 | 6 | VATSQGFYSGLSELLQGGGNV [20E2B-3-E12-IGFR] |
| 7.4 | 5.3 | ICTGQGFYQVLCGLLRGTSAR [20E2B-2-B3-IGFR] |
| 7.8 | 17.3 | AQPCGGFYGLLEQLVGRSVCD [20E2B-4-F10-IGFR] |
| 8.1 | 4.9 | PGTDLGFYQALRCVVIQGACD [20E2B-2-B2-IGFR] |
| 7.3 | 6.2 | QGNVLDFYGWIGRLLAKQGSD [20E2B-3-D12-IGFR] |
| 5.9 | 5.7 | VNQSGSIHENFYDWFERQVSHQRGVR [H2CA-4-F10-IGFR] |
| 6 | 7.7 | FFYRCLSRLLGGQLGSRLGLSCIGD [20C-3-E4-IGFR] |
| 5 | 4.4 | TLRSPTFYDWLEMVLTHGQGG [20E2B-1-A8-IGFR] |
| 5.9 | 5.3 | PAGPCGFYCGLGLLLHGDQSP [20E2B-4-H8-IGFR] |
| 6.9 | 17.8 | DSVGDNFYQLLESLVGGHGVG [20E2B-3-D6-IGFR] |
| 5.1 | 5.4 | VGTVAGFYDAIAQLVARASRV [20E2A-3-C7-IGFR] |
| 7.7 | 14.7 | QPDHSYFYSLLQELVGSEERL [20E2B-4-F9-IGFR] |
| 6.7 | 6.7 | RGIVAMVEATEVGSDHDPFYHKLSELVQGS [B6Hα-2-C7-IR] |
| 9.4 | 9.2 | SACQFDCHENFYDWFARQVSGGAAYG [H2CA-4-H8-IGFR] |
| 5.6 | 5.2 | RCQGTGFYTCIQELIGFGDPD [20E2B-4-H9-IGFR] |
| 3.9 | 6.9 | MMVVDGFYDALHQLVVAQSLG [20E2A-3-D10-IGFR] |

biological target: T2, soluble human insulin receptor-immunoglobulin heavy chain chimera (sIR-Fc; Bass et al., 1996) (human, UniProt P06213 28-956, limits assumed); assay: phage ELISA
T2 construct: extracellular domain; also called soluble IR (Bass construct); not shown: immunoglobulin heavy chain constant domains

| IR/IGF-1R comparison | Ratio over Background | Binder |
| --- | --- | --- |
| 0.3 | 1.1 | LSVALSFYDALGQLVAGEGRW [20E2A-3-A12-IGFR] |
| 0.1 | 0.8 | NSRDGGFYLQLERLLGFPVTG [20E2B-3-D4-IGFR] |
| 0.1 | 0.6 | RQGTGSFYLMLEQLLVGARGP [20E2B-4-G11-IGFR] |
| 0.1 | 1.6 | LGVTDGFYAALGYLIHGVGQF [20E2B-3-D11-IGFR] |
| 0.2 | 1.9 | GCVVEWQKWHGASDPFYHKLSELGGCS [B6Hα-3-F10-IR] |
| 0.1 | 1 | SAAQLFFQESFYDWFLRQVAESSQPN [H2CA-4-F11-IGFR] |
| 0.2 | 1.1 | AVRATRFDEAFYDWFVRQISDGQGNK [H2CA-4-F6-IGFR] |
| 0.1 | 1 | RFSTDGFYQYLLALVGGGPVG [20E2B-1-A11-IGFR] |
| 0.2 | 1.3 | GCAVVEEAERSRGDPFYHKLSELIQGC [B6Hα-3-E7-IR] |
| 0.1 | 0.9 | LSSDGQFYRALNLLLQGSAGR [20E2B-2-B7-IGFR] |
| 0.1 | 1.2 | QFYGCLLDLSLGVPSFGWRRRCITA [20C-3-A4-IGFR] |
| 0.2 | 3.3 | ASSASGFYELLQRLAGLGLEV [20E2B-3-C4-IGFR] |
| 0.2 | 1.3 | GCEVIVEEGDSADPFYHKLSELCQGS [B6Hα-2-D1-IR] |
| 0.2 | 1.8 | IIGGFYSYFNSVLRLGT [NNRPγ-4-A1-IR] |
| 0.2 | 1.1 | RGKTAAVIVGRPADPFYHKLSELLQGG [B6Hα-3-E8-IR] |
| 0.2 | 1 | GRTMAVMAAGGPDDPFYHKLSELVQGG [B6Hα-2-D6-IR] |
| 0.1 | 1.4 | EGSGFYGYFFSLLGLQG [NNRPγ-4-A9-IR] |
| 0.2 | 1.3 | RFDPFYSYFVNLLGASA [NNRPγ-4-A7-IR] |
| 0.3 | 1.4 | AETSVQVGWIRLQSVWPGEHWNTVDPFYHKLSELLRGSGA [B6L-4-D7-IR] |
| 0.1 | 0.8 | IWATGDFYRLLSQLVMGRVGT [20E2B-2-B8-IGFR] |

| IR/IGF-1R comparison | Ratio over Background | Binder |
| --- | --- | --- |
| 0.1 | 1.8 | QPAPDGFYSALMKLIGRGGVS [20E2B-3-C8-IGFR] |
| 0.3 | 1.7 | GGTKAVAKVGTRDDPFYHKLSELLQGS [B6Hα-4-G8-IR] |
| 0.2 | 1.1 | SGAKVIVVTGDSGDPFYHKLSELLQGS [B6Hα-2-C10-IR] |
| 0.1 | 0.8 | VATSQGFYSGLSELLQGGGNV [20E2B-3-E12-IGFR] |
| 0.1 | 0.7 | ICTGQGFYQVLCGLLRGTSAR [20E2B-2-B3-IGFR] |
| 0.1 | 2.2 | AQPCGGFYGLLEQLVGRSVCD [20E2B-4-F10-IGFR] |
| 0.1 | 0.6 | PGTDLGFYQALRCVVIQGACD [20E2B-2-B2-IGFR] |
| 0.1 | 0.9 | QGNVLDFYGWIGRLLAKQGSD [20E2B-3-D12-IGFR] |
| 0.2 | 1 | VNQSGSIHENFYDWFERQVSHQRGVR [H2CA-4-F10-IGFR] |
| 0.2 | 1.3 | FFYRCLSRLLGGQLGSRLGLSCIGD [20C-3-E4-IGFR] |
| 0.2 | 0.9 | TLRSPTFYDWLEMVLTHGQGG [20E2B-1-A8-IGFR] |
| 0.2 | 0.9 | PAGPCGFYCGLGLLLHGDQSP [20E2B-4-H8-IGFR] |
| 0.1 | 2.6 | DSVGDNFYQLLESLVGGHGVG [20E2B-3-D6-IGFR] |
| 0.2 | 1.1 | VGTVAGFYDAIAQLVARASRV [20E2A-3-C7-IGFR] |
| 0.1 | 1.9 | QPDHSYFYSLLQELVGSEERL [20E2B-4-F9-IGFR] |
| 0.1 | 1 | RGIVAMVEATEVGSDHDPFYHKLSELVQGS [B6Hα-2-C7-IR] |
| 0.1 | 1 | SACQFDCHENFYDWFARQVSGGAAYG [H2CA-4-H8-IGFR] |
| 0.2 | 0.9 | RCQGTGFYTCIQELIGFGDPD [20E2B-4-H9-IGFR] |
| 0.3 | 1.8 | MMVVDGFYDALHQLVVAQSLG [20E2A-3-D10-IGFR] |
